Data as given in patent US20170306005A1 (NASCIENT, published 2017).
Values belong to the binder of their own block, whether it stands above or below them.

Legend:
[1] = biological target: T1, human tenascin-R rCd4-His-FBG (rat; human, UniProt P05540 207-392, limits assumed); test: SPR off-rate screen, captured IgG4 supernatant, 25 C
T1 construct: domain: domains 3 and 4; C-terminal FBG fusion; also called Hu TNR; human TNR rCd4-His-FBG; not shown: 6His tag
T1 sequence (chain (part 1 of 2)): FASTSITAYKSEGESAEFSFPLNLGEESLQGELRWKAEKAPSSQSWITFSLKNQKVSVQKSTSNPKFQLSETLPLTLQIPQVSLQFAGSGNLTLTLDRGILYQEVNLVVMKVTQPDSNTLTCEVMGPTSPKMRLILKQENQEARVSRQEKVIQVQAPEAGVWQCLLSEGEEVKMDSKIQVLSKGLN
T1 sequence (chain (part 2 of 2)): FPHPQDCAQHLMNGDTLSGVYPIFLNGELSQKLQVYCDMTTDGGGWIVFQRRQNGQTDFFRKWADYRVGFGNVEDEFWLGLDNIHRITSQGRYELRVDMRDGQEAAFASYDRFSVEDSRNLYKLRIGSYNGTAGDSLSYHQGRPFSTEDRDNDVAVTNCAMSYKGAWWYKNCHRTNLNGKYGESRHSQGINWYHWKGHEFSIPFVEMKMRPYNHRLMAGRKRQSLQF
Method: (§1) The 31 scFv of interest were sub-cloned into a human IgG4 expression vector for generation of antibodies as human IgG4 with a hinge-stabilising mutation (S241P; Angal et al, 1993). […] Briefly, surface plasmon resonance (SPR) experiments were performed using a BIAcore T100 instrument and followed the protocol according to the Human antibody capture kit protocol (GE, BR-1008-39). For off-rate screening, 10,000 response units (RU) of anti-human Fc IgG (GE, BR-1008-39) was immobilised on flow-cells (FC1 and FC2) of a Series 5 CM5 dextran sensor chip (BR-1005-30) using EDC/NHS cross-linking chemistry according to the amine coupling kit protocol (GE, BR-1000-50). Culture supernatants containing expressed IgG4 were diluted 1:2 with 2×PBS-T and injected into FC2 (flowrate 5 μl/min, 60 s contact time) to enable antibody capture at 25° C. […] A fixed concentration of antigen (15 nM of human and mouse TNC rCd4-His-FBG and 100 nM of human TNR rCd4-His-FBG) was injected with a flow-path via FC 1 (reference flow cell) and FC 2 (antibody capture flow cell), with a flow rate of 30 μl/min, and the association and dissociation phases measured over 1 and 5 min time periods, respectively. Regeneration of the binding surface employed 3M MgCl₂ with 30 s contact time. Off rates were determined by reference cell subtraction and fitting the sensogram experimental data assuming a 1:1 interaction using BIAevaluation software (GE, BR-1005-97).

[2] = biological target: T2, human tenascin-C rCd4-His-FBG (rat; human, UniProt P05540 207-392, limits assumed); test: as above
T2 construct: domain: domains 3 and 4; C-terminal FBG fusion; biotinylated in the ELISA and HTRF screens; also called Hu TNC; human TNC rCd4-His-FBG; not shown: 6His tag
T2 sequence (chain (part 1 of 2)): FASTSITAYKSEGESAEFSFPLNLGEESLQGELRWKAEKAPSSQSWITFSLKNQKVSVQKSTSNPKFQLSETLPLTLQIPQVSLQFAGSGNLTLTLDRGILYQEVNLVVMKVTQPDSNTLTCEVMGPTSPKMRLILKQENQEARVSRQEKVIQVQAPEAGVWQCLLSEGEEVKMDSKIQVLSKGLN
T2 sequence (chain (part 2 of 2)): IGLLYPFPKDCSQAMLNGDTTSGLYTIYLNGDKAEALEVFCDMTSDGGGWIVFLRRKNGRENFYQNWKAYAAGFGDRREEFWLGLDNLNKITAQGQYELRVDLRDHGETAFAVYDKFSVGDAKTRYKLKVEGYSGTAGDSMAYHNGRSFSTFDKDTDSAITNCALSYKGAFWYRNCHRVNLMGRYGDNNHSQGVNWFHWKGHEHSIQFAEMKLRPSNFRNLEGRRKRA
Method: as §1

[3] = biological target: T3, mouse tenascin-C rCd4-His-FBG (rat; mouse, UniProt P05540 207-392, limits assumed); test: as above
T3 construct: domain: domains 3 and 4; C-terminal FBG fusion; biotinylated in the ELISA screen; also called Mu TNC; mouse TNC rCd4-His-FBG; not shown: 6His tag
T3 sequence (chain (part 1 of 2)): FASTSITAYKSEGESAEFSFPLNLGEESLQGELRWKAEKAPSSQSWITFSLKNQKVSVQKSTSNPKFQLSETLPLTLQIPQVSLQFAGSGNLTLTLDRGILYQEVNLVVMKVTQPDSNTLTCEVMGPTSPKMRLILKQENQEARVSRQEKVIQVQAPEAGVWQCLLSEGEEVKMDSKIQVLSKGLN
T3 sequence (chain (part 2 of 2)): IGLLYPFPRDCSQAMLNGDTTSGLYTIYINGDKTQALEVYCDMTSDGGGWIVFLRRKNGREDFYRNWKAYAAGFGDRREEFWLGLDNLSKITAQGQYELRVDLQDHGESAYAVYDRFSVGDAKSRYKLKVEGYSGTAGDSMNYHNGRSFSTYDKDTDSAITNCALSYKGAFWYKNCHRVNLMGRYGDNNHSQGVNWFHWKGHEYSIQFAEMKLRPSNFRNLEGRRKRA
Method: as §1

[4] = biological target: T1, human tenascin-R rCd4-His-FBG; test: SPR, captured purified IgG4, 37 C
Method: (§2) Detailed kinetic parameters were evaluated for the 9 prioritised IgG4 antibodies. Binding characteristics were determined for interaction with human, rat and dog TNC rCD4-His-FBG, and human TNR rCD4-His-FBG. Kinetic assays followed essentially the same protocols as for the off-rate determinations described above, with some modifications as follows. […] Purified anti-FBG IgG4 was diluted to a concentration of 3.5 nM in PBS, pH 7.4, 0.05% Tween-20 and injected into FC2 at a flow rate of 10 μl/min, 60 s contact time. […] Antigens were prepared by doubling dilution in PBS, pH 7.4, 0.05% Tween-20 (highest concentration 100 nM except mouse rCD4-His-FBG which was 7 nM). Assays were performed at 37° C. (30 μl/min, 120 s contact time; mouse rCD4-His-FBGFBG 10 μl/min, 60 s contact time), with both the flow cell and injection chamber equilibrated to this temperature. As before, kinetic parameters were determined by reference cell subtraction and fitting the sensogram experimental data assuming a 1:1 interaction using BIAevaluation software (GE, BR-1005-97).

[5] = biological target: T4, dog tenascin-C rCD4-His-FBG (rat; dog, UniProt P05540 207-392, limits assumed); test: SPR, captured purified IgG4, 37 C
T4 construct: domain: domains 3 and 4; C-terminal FBG fusion; also called Dog TNC; not shown: 6His tag
T4 sequence (chain (part 1 of 2)): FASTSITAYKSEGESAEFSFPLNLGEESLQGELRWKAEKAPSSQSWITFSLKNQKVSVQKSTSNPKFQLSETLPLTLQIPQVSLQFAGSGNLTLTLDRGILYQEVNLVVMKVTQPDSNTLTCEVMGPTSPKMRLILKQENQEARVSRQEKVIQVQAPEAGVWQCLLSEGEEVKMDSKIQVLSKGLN
T4 sequence (chain (part 2 of 2)): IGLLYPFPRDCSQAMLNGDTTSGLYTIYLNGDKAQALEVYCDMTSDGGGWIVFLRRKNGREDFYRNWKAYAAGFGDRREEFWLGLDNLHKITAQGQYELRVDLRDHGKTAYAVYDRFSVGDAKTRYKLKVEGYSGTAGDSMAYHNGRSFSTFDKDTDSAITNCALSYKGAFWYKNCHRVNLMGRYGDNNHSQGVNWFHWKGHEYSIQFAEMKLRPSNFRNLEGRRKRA
Method: as §2

[6] = biological target: T2, human tenascin-C rCd4-His-FBG; test: SPR, captured purified IgG4, 37 C
Method: as §2

[7] = biological target: T5, rat tenascin-C rCd4-His-FBG (rat, UniProt P05540 207-392, limits assumed); test: SPR, captured purified IgG4, 37 C
T5 construct: domain: domains 3 and 4; C-terminal FBG fusion; also called Rat TNC; rat TNC rCD4-His-FBG; not shown: 6His tag
T5 sequence (chain (part 1 of 2)): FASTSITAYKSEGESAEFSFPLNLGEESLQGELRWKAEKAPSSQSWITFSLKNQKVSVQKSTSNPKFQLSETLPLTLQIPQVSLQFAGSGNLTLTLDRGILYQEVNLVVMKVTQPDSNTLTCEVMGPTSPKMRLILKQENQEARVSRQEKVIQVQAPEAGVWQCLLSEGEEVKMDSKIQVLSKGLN
T5 sequence (chain (part 2 of 2)): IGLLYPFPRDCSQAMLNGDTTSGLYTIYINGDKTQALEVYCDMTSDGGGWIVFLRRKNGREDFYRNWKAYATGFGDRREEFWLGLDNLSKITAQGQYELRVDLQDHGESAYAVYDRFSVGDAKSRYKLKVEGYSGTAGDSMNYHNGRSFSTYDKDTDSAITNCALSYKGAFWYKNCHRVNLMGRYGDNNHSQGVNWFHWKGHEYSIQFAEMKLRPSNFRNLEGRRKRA
Method: as §2

[8] = biological target: T3, mouse tenascin-C rCd4-His-FBG; test: SPR, captured purified IgG4, 37 C
Method: as §2

[9] = biological target: T6, Human FGB-rCd4; test: ELISA (DELFIA), antigen coated on the well, purified Fab at 50 nM, detected with anti-kappa or anti-lambda mAb and Europium-conjugated anti-mouse mAb
T6 construct: Not the same construct as m1, which has the FBG at the C terminus; also called human TNC FBG-rCD4; human tenascin-C FBG-rCd4-His (FBG at the N terminus of the rat Cd4 tag); not shown: rat Cd4 (domains 3 and 4) tag, the C-terminal His6 tag and the vector-derived junction residues of pBIOCAM4
T6 chain: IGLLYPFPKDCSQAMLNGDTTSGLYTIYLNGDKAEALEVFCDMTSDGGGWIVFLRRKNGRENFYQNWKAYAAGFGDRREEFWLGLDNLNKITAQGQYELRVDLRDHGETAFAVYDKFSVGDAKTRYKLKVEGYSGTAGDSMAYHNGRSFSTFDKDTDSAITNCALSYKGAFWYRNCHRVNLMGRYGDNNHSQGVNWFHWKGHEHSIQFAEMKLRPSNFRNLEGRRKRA

[10] = biological target: T3, mouse tenascin-C rCd4-His-FBG; test: SPR, parental antibody
[11] = biological target: T1, human tenascin-R rCd4-His-FBG; test: SPR steady state, captured Fab, 25 C
Method: (§3) Experiments were performed using a BIAcore T100 instrument with CM5 sensor chip according to the protocol provided with the Human Fab Capture Kit (GE, 28-9583-25). […] After reference signal subtraction, the data was fitted to a global 1:1 fit using the T100 BIAevaluation software (FIGS. 6 a-d).

[12] = biological target: T2, human tenascin-C rCd4-His-FBG; test: SPR, captured Fab, 25 C
Method: as §3

[13] = biological target: T3, mouse tenascin-C rCd4-His-FBG; test: SPR, captured Fab, 25 C
Method: as §3

[14] = biological target: T7, human Fc-His-FBG (human, UniProt P24821 1974-2201); test: cell-based or functional assay
T7 sequence: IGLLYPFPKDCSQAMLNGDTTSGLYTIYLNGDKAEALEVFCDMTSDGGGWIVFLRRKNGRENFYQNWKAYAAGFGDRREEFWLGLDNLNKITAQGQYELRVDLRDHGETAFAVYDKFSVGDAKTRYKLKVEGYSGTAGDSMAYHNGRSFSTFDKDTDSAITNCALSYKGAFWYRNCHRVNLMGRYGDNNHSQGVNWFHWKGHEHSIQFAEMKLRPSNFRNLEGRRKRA

koff [1]: 0.011 s⁻¹
koff [2]: 6.7e-06 s⁻¹
koff [3]: 5.9e-06 s⁻¹
Kd [4]: 15.2 nM
fold lower affinity than for human TNC FBG [4]: > 70 fold
koff [4]: 0.00399 s⁻¹
kon [4]: 260000 M⁻¹ s⁻¹
Kd [5]: 0.094 nM
koff [5]: 0.00018 s⁻¹
kon [5]: 1.9e+06 M⁻¹ s⁻¹
Kd [6]: 0.21 nM
koff [6]: 0.0005 s⁻¹
kon [6]: 2.35e+06 M⁻¹ s⁻¹
Kd [7]: 1.49 nM
koff [7]: 0.00189 s⁻¹
kon [7]: 1.27e+06 M⁻¹ s⁻¹
Kd [8]: 1.23 nM
koff [8]: 0.000146 s⁻¹
kon [8]: 118000 M⁻¹ s⁻¹
B1: 160_01_A4 human IgG4 (antibody, V domains shown)
VH: EVRLVQSGAEVKKPGASVKVSCKVSGYTLTELSMHWVRQAPGKGLEWMGGFDPEDGETIYAQKFQGRVTMTEDTSTDTAYMELSSLRSEDTAVYYCATAQKETLGNAIWGQGTLVTVSS
VL: DIQMTQSPASLPTSVGDRVTITCRASQYIQGFLNWYQQKPGKAPRLLIYAASTLQDGVPSRFSGSGYGTDFTLTISSLQPEDFATYYCQQSYSTPWTFGQGTKVEIKR
notes: human IgG4 with hinge S241P; also called Antibody 160 01 A4 (derived from 2A5)

binding result [9]: binds
fold difference in affinity between human and mouse rCd4-his-FBG [10]: 2.6 fold
Kd [11]: 1810 nM
Kd [12]: 27.4 nM
koff [12]: 0.00346 s⁻¹
kon [12]: 126000 M⁻¹ s⁻¹
Kd [13]: 70.6 nM
koff [13]: 0.00642 s⁻¹
kon [13]: 91000 M⁻¹ s⁻¹
IC50, inhibition of Fc-His-HuFBG-evoked IL-8 release, THP1-Blue cells [14]: 13.8 nM
IC50, inhibition of Fc-His-HuFBG-evoked alkaline phosphatase, THP1-Blue cells [14]: 8.4 nM
B2: Fab F3 (Fab, V domains shown)
VH: EVQLLESGGGLVQPGGSLRLSCAASGFTFSSYGMHWVRQAPGKGLEWVAVISYDGSNKYYADSVKGRFTISRGNSKNTLYLQMNSLKAEDTAVYYCAREGYDQLFSAESNAFDIWGQGTLVTVSS
VL: NFMLAQPHSVSESPGKTVTISCTRSSGSIASYFVQWFQQRPGSAPTAVIYEDNQRPSGVPDRFSGSIDSSSNSASLTISGLKTEDEADYYCQSYDSSNWVFGGGTKVTVLG
notes: monomeric Fab
